# Measured values: paper PMC10985028 (Acta Pharmaceutica Sinica. B, 2024)
# T1: HA-tagged USP48 (human, UniProt Q86UV5 1-1035)
# T1 sequence (looked up): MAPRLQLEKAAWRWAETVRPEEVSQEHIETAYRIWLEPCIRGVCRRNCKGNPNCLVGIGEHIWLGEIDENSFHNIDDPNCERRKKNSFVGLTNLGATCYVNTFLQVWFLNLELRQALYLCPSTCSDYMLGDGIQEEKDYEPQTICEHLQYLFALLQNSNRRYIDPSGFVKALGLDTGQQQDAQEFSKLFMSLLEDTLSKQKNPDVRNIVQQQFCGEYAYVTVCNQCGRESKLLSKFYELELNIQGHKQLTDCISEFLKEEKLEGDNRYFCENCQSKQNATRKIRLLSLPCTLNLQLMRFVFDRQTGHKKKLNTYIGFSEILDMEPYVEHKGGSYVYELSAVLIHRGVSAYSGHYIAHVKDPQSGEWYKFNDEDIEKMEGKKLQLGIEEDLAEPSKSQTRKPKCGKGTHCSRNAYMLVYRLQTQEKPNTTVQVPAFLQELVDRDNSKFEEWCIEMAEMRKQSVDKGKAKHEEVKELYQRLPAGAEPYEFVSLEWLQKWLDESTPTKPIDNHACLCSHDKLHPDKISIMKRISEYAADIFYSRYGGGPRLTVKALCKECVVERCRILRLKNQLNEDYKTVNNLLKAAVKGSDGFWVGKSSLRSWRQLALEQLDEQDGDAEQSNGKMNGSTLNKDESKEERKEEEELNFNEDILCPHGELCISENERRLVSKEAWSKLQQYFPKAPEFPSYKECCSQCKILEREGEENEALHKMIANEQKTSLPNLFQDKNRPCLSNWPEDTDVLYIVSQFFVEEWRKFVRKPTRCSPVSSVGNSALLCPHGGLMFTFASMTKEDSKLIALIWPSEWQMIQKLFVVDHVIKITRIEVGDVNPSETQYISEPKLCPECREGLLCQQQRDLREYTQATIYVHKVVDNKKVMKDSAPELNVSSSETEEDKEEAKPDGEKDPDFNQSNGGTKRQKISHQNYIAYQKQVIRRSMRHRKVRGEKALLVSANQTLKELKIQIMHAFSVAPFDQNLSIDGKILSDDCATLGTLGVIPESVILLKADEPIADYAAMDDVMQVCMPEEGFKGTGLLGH
# B1: GST-HMGA2 (natural protein, human, UniProt P52926 1-109, looked up)
# chain: MSARGEGAGQPSTSAQGQPAAPAPQKRGRGRPRKQQQEPTGEPSPKRPRGRPKGSKNKSPSKAAQKKAEATGEKRPRGRPRKWPQQVVQKKPAQEETEETSSQESAEED
# Molecular target: T1, HA-tagged USP48
# Test: pull-down
binder,measurement,value
B1,binding result,binds
